61 substances from patent US10047131B2, “Peptides and combination of peptides for use in immunotherapy against ovarian cancer and other cancers” (immatics biotechnologies GmbH, priority 2015, dated 2018) can be followed below.

This assay has as its target HLA-A*02:01 (Homo sapiens, UniProt P04439, D140Y/D185E/D98H/E176V/E277Q/G131W/G231S/I119V/I121R/I166T/I218V/L300P/L318F/N151K/N90K/P208A/P217A/Q86G/Q94H/R138H/R169H/T345S). In words: MHC binding assay (UV-ligand exchange, ELISA of exchange yield). To be noted: binding to HLA-A*02:01, UV-ligand exchange. The gist of the method:
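Peptide–MHC complexes made by UV-ligand exchange, where a UV-cleavable peptide is replaced by the test peptide. Exchange yield measured by ELISA: complexes diluted 100-fold on streptavidin-coated plates, stabilized complexes detected with HRP anti-β2m, TMB read at 450 nm.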
For orientation: In an ELISA, binding on a coated surface is turned into a signal by an enzyme label.
For the substance “167 (KVLEVTEEFGV; listed as Homo sapiens) [compound 167]”, the “Peptide exchange (MHC class I binding score, peptide exchange yield)” value (“Peptide exchange” for short) is recorded as ““+++” (≥50 = +++)”. With “168 (KILDADIQL; listed as Homo sapiens) [compound 168]”, the “Peptide exchange” value is reported as ““++++” (≥75% = ++++)”. The value for “169 (NLPEYLPFV; listed as Homo sapiens) [compound 169]” was ““+++” (≥50 = +++)”; that for “170 (RLQETLSAA; listed as Homo sapiens) [compound 170]” was ““+++” (≥50 = +++)”; that for “171 (LLLPLQILL; listed as Homo sapiens) [compound 171]” was ““+++” (≥50 = +++)”. Regarding “172 (VLYSYTIITV; listed as Homo sapiens) [compound 172]”, the “Peptide exchange” value is ““++” (≥20% = ++)”. Regarding “173 (LLDSASAGLYL; listed as Homo sapiens) [compound 173]”, the “Peptide exchange” value was ““+++” (≥50 = +++)”.

Take “174 (ALAQYLITA; listed as Homo sapiens) [compound 174]”: the “Peptide exchange” value is ““+++” (≥50 = +++)”. With “175 (YLFENISQL; listed as Homo sapiens) [compound 175]” the entry was ““+++” (≥50 = +++)”.

For “176 (YLMEGSYNKVFL; listed as Homo sapiens) [compound 176]”, the “Peptide exchange” value was ““++” (≥20% = ++)”.

Take “177 (YLLPEEYTSTL; listed as Homo sapiens) [compound 177]”: the “Peptide exchange” value is reported as ““++++” (≥75% = ++++)”.

Regarding “178 (ALTEIAFVV; listed as Homo sapiens) [compound 178]”, the “Peptide exchange” value is ““++++” (≥75% = ++++)”.

For the substance “179 (KVLNELYTV; listed as Homo sapiens) [compound 179]”, the “Peptide exchange” value is ““+++” (≥50 = +++)”. As to “180 (FQIDPHSGLVTV; listed as Homo sapiens) [compound 180]”, the “Peptide exchange” value is reported as ““++” (≥20% = ++)”. With “181 (LLWAGTAFQV; listed as Homo sapiens) [compound 181]” the entry was ““+++” (≥50 = +++)”; with “182 (MLLEAPGIFL; listed as Homo sapiens) [compound 182]”, ““+++” (≥50 = +++)”; with “183 (FGLDLVTEL; listed as Homo sapiens) [compound 183]”, ““+++” (≥50 = +++)”. In the case of “184 (YLMDINGKMWL; listed as Homo sapiens) [compound 184]”, the “Peptide exchange” value was ““+++” (≥50 = +++)”. With “185 (FLIDDKGYTL; listed as Homo sapiens) [compound 185]” the entry was ““++” (≥20% = ++)”; with “186 (TLFFQQNAL; listed as Homo sapiens) [compound 186]”, ““++” (≥20% = ++)”; with “187 (RQISIRGIVGV; listed as Homo sapiens) [compound 187]”, ““+++” (≥50 = +++)”. “188 (GLFPVTPEAV; listed as Homo sapiens) [compound 188]”: the “Peptide exchange” value is given as ““+++” (≥50 = +++)”. With “189 (ALQRKLPYV; listed as Homo sapiens) [compound 189]” the entry was ““+++” (≥50 = +++)”; with “190 (FLSSLTETI; listed as Homo sapiens) [compound 190]”, ““+++” (≥50 = +++)”; with “191 (LLQEGQALEYV; listed as Homo sapiens) [compound 191]”, ““++” (≥20% = ++)”. For the substance “192 (KMLDGASFTL; listed as Homo sapiens) [compound 192]”, the “Peptide exchange” value was ““+++” (≥50 = +++)”.

In the case of “193 (QLLDADGFLNV; listed as Homo sapiens) [compound 193]”, the “Peptide exchange” value is listed as ““+++” (≥50 = +++)”. Consider “194 (ALPLFVITV; listed as Homo sapiens) [compound 194]”, for which the “Peptide exchange” value is listed as ““+++” (≥50 = +++)”. Regarding “195 (GLFADLLPRL; listed as Homo sapiens) [compound 195]”, the “Peptide exchange” value is ““+++” (≥50 = +++)”. As to “196 (YLYSVEIKL; listed as Homo sapiens) [compound 196]”, the “Peptide exchange” value is ““++++” (≥75% = ++++)”.

Regarding “197 (ALGPEGGRV; listed as Homo sapiens) [compound 197]”, the “Peptide exchange” value was ““++” (≥20% = ++)”. Regarding “198 (KTINKVPTV; listed as Homo sapiens) [compound 198]”, the “Peptide exchange” value is recorded as ““+++” (≥50 = +++)”. Turning to “199 (ALQDVPLSSV; listed as Homo sapiens) [compound 199]”, the “Peptide exchange” value was ““+++” (≥50 = +++)”. As to “200 (LLFGSVQEV; listed as Homo sapiens) [compound 200]”, the “Peptide exchange” value is given as ““+++” (≥50 = +++)”.

For the substance “201 (RLVDYLEGI; listed as Homo sapiens) [compound 201]”, the “Peptide exchange” value is given as ““+++” (≥50 = +++)”.

In the case of “202 (ALLDQQGSRWTL; listed as Homo sapiens) [compound 202]”, the “Peptide exchange” value is reported as ““+++” (≥50 = +++)”. For the substance “204 (KIAENVEEV; listed as Homo sapiens) [compound 204]”, the “Peptide exchange” value is given as ““++” (≥20% = ++)”. The value for “205 (SLYPGTETMGL; listed as Homo sapiens) [compound 205]” was ““+++” (≥50 = +++)”. In the case of “206 (VLQEGKLQKLAQL; listed as Homo sapiens) [compound 206]”, the “Peptide exchange” value is on record as ““+++” (≥50 = +++)”. With “207 (GLTSTNAEV; listed as Homo sapiens) [compound 207]” the entry was ““++” (≥20% = ++)”; with “208 (KISPVTFSV; listed as Homo sapiens) [compound 208]”, ““+++” (≥50 = +++)”.

Regarding “209 (KLIESKHEV; listed as Homo sapiens) [compound 209]”, the “Peptide exchange” value is given as ““++” (≥20% = ++)”. On to “210 (LLLNAVLTV; listed as Homo sapiens) [compound 210]”, for which the “Peptide exchange” value is on record as ““++” (≥20% = ++)”. With “211 (LLWPGAALL; listed as Homo sapiens) [compound 211]” the entry was ““++” (≥20% = ++)”; with “212 (ALWDQDNLSV; listed as Homo sapiens) [compound 212]”, ““++” (≥20% = ++)”; with “214 (FLLDLDPLLL; listed as Homo sapiens) [compound 214]”, ““+++” (≥50 = +++)”. The value for “215 (QLINHLHAV; listed as Homo sapiens) [compound 215]” was ““+++” (≥50 = +++)”; that for “216 (NLWEDPYYL; listed as Homo sapiens) [compound 216]” was ““+++” (≥50 = +++)”.

For the substance “217 (ALIHPVSTV; listed as Homo sapiens) [compound 217]”, the “Peptide exchange” value was ““++” (≥20% = ++)”. For “218 (SALEELVNV; listed as Homo sapiens) [compound 218]”, the “Peptide exchange” value is ““++” (≥20% = ++)”. Regarding “219 (KLSDIGITV; listed as Homo sapiens) [compound 219]”, the “Peptide exchange” value is reported as ““+++” (≥50 = +++)”. Consider “220 (LLQKFVPEI; listed as Homo sapiens) [compound 220]”, for which the “Peptide exchange” value was ““++” (≥20% = ++)”. With “221 (ALYEEGLLL; listed as Homo sapiens) [compound 221]”, the “Peptide exchange” value is ““++” (≥20% = ++)”.

Turning to “222 (NLIENVQRL; listed as Homo sapiens) [compound 222]”, the “Peptide exchange” value is reported as ““++” (≥20% = ++)”. Turning to “223 (ALLENIALYL; listed as Homo sapiens) [compound 223]”, the “Peptide exchange” value is on record as ““+++” (≥50 = +++)”. “224 (TLIDAQWVL; listed as Homo sapiens) [compound 224]”: the “Peptide exchange” value is reported as ““+++” (≥50 = +++)”.

In the case of “225 (SLLKVLPAL; listed as Homo sapiens) [compound 225]”, the “Peptide exchange” value is ““+++” (≥50 = +++)”. With “226 (MLYVVPIYL; listed as Homo sapiens) [compound 226]”, the “Peptide exchange” value was ““++” (≥20% = ++)”. The value for “227 (ALMNTLLYL; listed as Homo sapiens) [compound 227]” was ““++” (≥20% = ++)”; that for “228 (AMQEYIAVV; listed as Homo sapiens) [compound 228]” was ““++” (≥20% = ++)”.

Consider “229 (RLPGPLGTV; listed as Homo sapiens) [compound 229]”, for which the “Peptide exchange” value is reported as ““++” (≥20% = ++)”.
